Results published in US20130058960A1 (Genentech, published 2013).

T1: TAT425 polypeptide (Homo sapiens (Human), UniProt O15439 1-1325)
T1 construct: no signal peptide or domain limits are stated; also called TAT425 protein; polypeptide encoded by DNA340411
T1 sequence: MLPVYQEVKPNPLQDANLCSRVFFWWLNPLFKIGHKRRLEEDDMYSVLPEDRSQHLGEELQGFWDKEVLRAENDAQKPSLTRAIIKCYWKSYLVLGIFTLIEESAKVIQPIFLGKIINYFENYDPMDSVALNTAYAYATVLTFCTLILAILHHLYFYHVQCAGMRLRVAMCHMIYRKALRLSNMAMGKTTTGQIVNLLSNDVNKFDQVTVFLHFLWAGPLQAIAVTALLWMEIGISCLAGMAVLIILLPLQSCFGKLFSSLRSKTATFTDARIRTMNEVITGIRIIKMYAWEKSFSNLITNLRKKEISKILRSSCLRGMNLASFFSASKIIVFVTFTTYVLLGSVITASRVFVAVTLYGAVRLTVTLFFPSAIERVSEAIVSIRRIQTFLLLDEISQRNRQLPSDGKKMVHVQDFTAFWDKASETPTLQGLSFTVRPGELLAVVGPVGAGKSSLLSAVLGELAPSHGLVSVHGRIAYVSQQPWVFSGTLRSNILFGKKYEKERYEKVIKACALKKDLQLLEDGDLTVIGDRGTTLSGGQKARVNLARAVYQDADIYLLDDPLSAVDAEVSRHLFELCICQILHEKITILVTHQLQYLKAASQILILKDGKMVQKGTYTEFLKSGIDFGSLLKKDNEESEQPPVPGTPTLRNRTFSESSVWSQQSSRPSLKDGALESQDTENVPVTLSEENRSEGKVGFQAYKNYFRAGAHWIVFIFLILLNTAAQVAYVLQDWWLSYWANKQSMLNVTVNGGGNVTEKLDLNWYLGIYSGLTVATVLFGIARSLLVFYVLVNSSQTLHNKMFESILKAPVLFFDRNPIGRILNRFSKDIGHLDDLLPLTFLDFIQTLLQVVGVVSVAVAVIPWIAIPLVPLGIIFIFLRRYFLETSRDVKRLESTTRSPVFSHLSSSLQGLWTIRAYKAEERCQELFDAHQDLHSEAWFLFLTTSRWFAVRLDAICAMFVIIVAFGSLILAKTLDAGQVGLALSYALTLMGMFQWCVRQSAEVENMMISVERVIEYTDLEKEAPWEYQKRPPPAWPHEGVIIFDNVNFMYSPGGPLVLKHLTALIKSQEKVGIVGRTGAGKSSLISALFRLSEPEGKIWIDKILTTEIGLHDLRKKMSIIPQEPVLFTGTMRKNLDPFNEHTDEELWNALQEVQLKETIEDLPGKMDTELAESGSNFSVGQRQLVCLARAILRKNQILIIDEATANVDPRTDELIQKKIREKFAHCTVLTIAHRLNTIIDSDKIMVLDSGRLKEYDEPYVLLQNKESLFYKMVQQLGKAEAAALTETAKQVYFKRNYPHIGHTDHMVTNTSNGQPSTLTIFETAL

B1: anti-TAT425 monoclonal antibody 14E7.17.1 (antibody, V domains shown)
VH: QVQLKESGPGLVAPSQSLSITCTVSGFSLTTYGVSWVRQPPGKGLEWLGLIWGDGSINYHSALISRLSISKDNSKSQVFLKLNSLQTDDTATYYCAKGWGGLYVMDYWGQGTSVTVAS
VL: DIQMTQSPASLSASVGETVTITCRSSENIYSYLAWYQQKLGKSPQLLVYNAKTLAEGVPSRFSGSGSGTQFSLKIYSLQSADFGSYYCQHHFGSPPTFGGGTKLESKR
B2: anti-TAT425 monoclonal antibody 13H2.28.2 (antibody, V domains shown)
VH: QVQLQQPGAELVRPGASVKLSCKASGYSFTSYWMNWVRQRPGQGLEWIGMIHPSDSETRLNQKFKDKATLTVDKSSSTAYMQLSSPTSDDSAVYFCTREAITAVHFWGHGTTLTVSS
VL: QAVVTQESALTTSPGETVTLTCRSSTGAVTTSNYANWVQEKPDHLFTGLIGGTNNRAPGVPARFSGSLIGDKAALTITGAQTEDEAIYFCALWYSNHWVFGGGTKLTVLG
B3: anti-TAT425 monoclonal antibody 2E4.6.1 (antibody, V domains shown)
VH: EVQLQQSGAELVKPGASVKLSCTTSGFNIKDYYMQWVKQRTGQGLEWIGRIDPEDGETKNAPKFQGKATITADTSSNTAYLQLSSLTSEDTAVYFCAREGYYGNGYAMDYWGQGTSVTVSS
VL: DVLMTQTPLSLPVSLGDQASISCRSSQSIVHSNGNTYLDWYLQKPGQSPKLLIYKVSNRFSGVPDRFSGSGSGTDFTLKISRVEAEDLGVYYCFQGSHVPWTFGGGTKLEIKR

What follows are binders tested against T1, TAT425 polypeptide (assay: Western blot, ELISA, FACS and/or immunohistochemistry on cells expressing TAT425).

Binding result, binds:
B1, B2, B3
